Test [1] has as its target T1, human BTLA (Uniprot Q7Z6A9) expressed on cells (human, UniProt Q7Z6A9 31-289).
T1 construct: whole, on cells; also called huBTLA-overexpressing Expi293 cells
The experiment in a line: flow cytometry on Expi293 cells stably overexpressing huBTLA, PE anti-human Fc. An excerpt:
To examine the binding of the chimeric anti-BTLA antibodies to huBTLA overexpressing cells, Expi293 cells stably overexpressing huBTLA were used to perform FACS analysis. Briefly, the coding sequence of huBTLA (Uniprot, Q7Z6A9) was cloned into a lentiviral vector and the recombinant virus was packaged according to the instruction of the virus packaging kit (Lenti-X™ Packaging Single Shots, Cat #631275, Takada). The Expi293 cells were transduced with the recombinant virus.
Expi293 cells stably overexpressing huBTLA were incubated with the chimeric anti-BTLA antibodies 83F2 or 86B7 in PBS containing 0.5% BSA, 1 mM EDTA, and 0.1% sodium azide (FACS buffer) for 30 minutes at 4° C. The cells were washed, and then incubated with 10 nM phycoerythrin (PE) conjugated anti-Human Fc Ab (BioLegend, cat #409304) for 20 minutes at 4° C. Cells were washed and then analyzed by flow cytometry with Attune (ThermoFisher Scientific). Data were analyzed with FlowJo software. Antibody binding is represented as median fluorescence intensity (MFI).

Test [2] has as its target T2, huBTLA as coated in the binding ELISA of Example 3 (tag not stated) (human, UniProt Q7Z6A9 31-157).
T2 construct: Detection was with anti-human IgG Fc
T2 sequence: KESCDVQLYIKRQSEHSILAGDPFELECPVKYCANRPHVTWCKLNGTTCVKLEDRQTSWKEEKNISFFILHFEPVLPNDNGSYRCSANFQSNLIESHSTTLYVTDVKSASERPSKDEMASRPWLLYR
Put plainly: ELISA, huBTLA coated at 0.333 ug/mL, anti-human IgG Fc-AP detection. How it is done: BTLA binding of purified recombinant chimeric antibodies by ELISA: The huBTLA and rhesus monkey BTLA antigen binding ELISA was performed on the purified recombinant chimeric antibodies. Briefly, 384-well, clear flat bottom high binding plates (Corning, cat #3700) were coated overnight at 4° C. with 0.333 μg/mL of huBTLA or rhesus monkey BTLA in PBS. The following purified process was performed as described in ELISA binding assay in Example 2, except that the secondary antibody was goat anti human IgG Fc-AP (Southern Biotech, cat #2014-04).
(In an ELISA, binding on a coated surface is turned into a signal by an enzyme label.)

In test [3] the target is T1, human BTLA (Uniprot Q7Z6A9) expressed …. Put plainly: cell-based or functional assay.
Test [4] shares this target. The experiment in a line: cell-based or functional assay. The source holds these as a separate data set.
The target of test [5] is T3, human BTLA extracellular domain with C-terminal 10xHis tag (human, UniProt Q7Z6A9 31-157).
T3 construct: also called HuBTLA-His; His-tag-huBTLA
T3 sequence: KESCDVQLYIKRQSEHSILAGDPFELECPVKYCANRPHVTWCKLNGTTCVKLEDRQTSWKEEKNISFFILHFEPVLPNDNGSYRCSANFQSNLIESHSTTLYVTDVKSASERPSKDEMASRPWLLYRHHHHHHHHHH
Put plainly: BLI (Octet RED96), antibody captured on AHC biosensor, His-tag-huBTLA in solution, 1:1 model. How it is done: The following kinetic assay was performed using anti-human IgG Fc capture (AHC) biosensors (ForteBio) in kinetics buffer (PBS, 0.1% Tween-20 and 1% bovine serum albumin): (a) antibody (2 μg/mL) for 300 sec, (b) baseline for 120 sec, (c) association with purified His-tag-huBTLA (2.5, 0.5 and 0 μg/mL) and His-tag-rhesus monkey BTLA (Sino Biologcal, cat #90250-C08H) (2.5, 0.5 and 0 μg/mL) for 420 sec and (d) dissociation for 1200 sec. Data fitting and analysis was performed with Octet data analysis software 8.0 (ForteBio) using a 1:1 binding model after Savitzky-Golay filtering.
(BLI is a label-free optical method that tracks binding on a fibre tip over time.)

B1: chimeric anti-BTLA antibody 86B7 (antibody, V domains shown)
VH: QVTLKESGPGILQPSQTLSLTCSFSGFSLSTFGMGVSWIRQPSGKGLEWLAHIYWDDDKRFNPSLKSRLSISKDTSNNQVFLKITTVDTADTATYYCARGNWDGETYFDYWGQGTTLTVSS
VL: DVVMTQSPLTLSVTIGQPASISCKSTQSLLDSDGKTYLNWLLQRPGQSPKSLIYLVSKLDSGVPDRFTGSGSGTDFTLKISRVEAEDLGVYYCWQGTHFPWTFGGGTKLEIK
In general, EC50 refers to the concentration giving half of the maximal effect. One may read the Kd as a measure of binding affinity in units of concentration. One may read the koff as the rate constant with which the complex falls apart. By kon is commonly meant a measure of how fast the partners come together. Consider B1, for which, in test [1], the midpoint of the response, the EC50, lay at 0.554 nM. The molecule also gave an EC50 in test [2] of 0.0511 nM. Besides, the “EC50 of recovery of IL-2 production, Raji-HVEM/primary human T cell coculture” value in test [3] is 1.68 nM. The “EC50 of recovery of IL-2 production, Raji-HVEM/Jurkat-BTLA coculture” value in test [4] came to 0.554 nM. In test [5], the Kd stood at 0.257 nM, the koff turned out to be 9.98e-05 s⁻¹ and the kon is 389000 M⁻¹ s⁻¹.

For the origin of these results see patent US20260035464A1 (STAIDSON BIOPHARMA, published 2026).
